In patent US20190091326A1:

Legend:
[1] = biological target: ZM233 V1/V2 scaffold, engineered, gD-tagged, produced in normal 293 HEK cells (herpes simplex virus 1; HIV-1 isolate ZM233); test: capture ELISA on 34.1 anti-gD; scaffold made in 293F cells
[2] = biological target: ZM109 V1/V2 scaffold, wildtype, gD-tagged, produced in GnTI- 293 cells (herpes simplex virus 1; HIV-1 isolate ZM109); test: ELISA; table row ZM109 V1/V2 wt, GnTI-
[3] = biological target: ZM197 V1/V2 wt (GnTI-); test: ELISA; table row ZM197 V1/V2 wt, GnTI-
[4] = biological target: ZM197 V1/V2 wt (293); test: ELISA; table row ZM197 V1/V2 wt, column 293
[5] = biological target: Bal.01 V1/V2 wt (GnTI-); test: ELISA; table row Bal.01 V1/V2 wt, GnTI-
[6] = biological target: 108060-I169K V1/V2 scaffold, gD-tagged, produced in normal 293 HEK cells (herpes simplex virus 1; HIV-1 isolate 108060); test: ELISA; table row 108060 V1/V2 I169K, column 293
[7] = biological target: ZM109 V1/V2 wt (293); test: ELISA; table row ZM109 V1/V2 wt, column 293
[8] = biological target: Bal.01 V1/V2 wt (293); test: ELISA; table row Bal.01 V1/V2 wt, column 293
[9] = biological target: 108060 I169K/E172V/T161M/N156I V1/V2 scaffold, gD-tagged, produced in normal 293 HEK cells (herpes simplex virus 1; HIV-1 isolate 108060); test: ELISA; table row 108060 I169K/E172V/T161M/N156I, column 293
[10] = biological target: UCSC1207 V1/V2/V3 scaffold (glycosylation site moved from N334 to N332) grown in GnTI- cells (HIV-1 isolate A244 (clade CRF01-AE)); test: ELISA, mAb titrated on scaffold, absorbance 492 nm; curve 512 (1207 GNTI-)
[11] = biological target: ZM233 V1/V2 scaffold, wildtype, gD-tagged, produced in normal 293 HEK cells (herpes simplex virus 1; HIV-1 isolate ZM233); test: capture ELISA on 34.1 anti-gD; scaffold made in normal 293 cells
[12] = biological target: ZM233 V1/V2 scaffold, engineered, gD-tagged, produced in GnTI- 293 HEK cells (herpes simplex virus 1; HIV-1 isolate ZM233); test: ELISA; table row ZM233 V1/V2.eng1*, GnTI-
[13] = biological target: ZM233 mutant - N156; test: ELISA, PG9 titrated, absorbance 490 nm
[14] = biological target: ZM233 mutant + N156; test: ELISA, PG9 titrated, absorbance 490 nm
[15] = biological target: A244 V1/V2 scaffold, wildtype, gD-tagged, produced in GnTI- 293 HEK cells (herpes simplex virus 1; HIV-1 isolate A244) (UniProt Q69091); test: ELISA; table row A244 V1/V2 wt, GnTI-
[16] = biological target: A244 V1/V2 scaffold, wildtype, gD-tagged, produced in GnTI- 293 HEK cells (herpes simplex virus 1; HIV-1 isolate A244) (UniProt Q69091); test: capture ELISA on 34.1 anti-gD; scaffold in medium of GnTI- cells
[17] = biological target: ZM233 V1/V2 scaffold, wildtype, gD-tagged, produced in GnTI- 293 HEK cells (herpes simplex virus 1; HIV-1 isolate ZM233); test: as above
[18] = biological target: MN mutant, Mock; test: ELISA of mock- or Endo H-digested scaffold, PG9 titrated, absorbance 490 nm
[19] = biological target: ZM233 mutant, Mock; test: as above
[20] = biological target: 108060 I169K/E172V V1/V2 scaffold, gD-tagged, produced in GnTI- 293 HEK cells (herpes simplex virus 1; HIV-1 isolate 108060); test: ELISA; table row 108060 V1/V2 I169K/E172V, GnTI-
[21] = biological target: A244-rgp120 grown in GnTI- cells (HIV-1 isolate A244); test: ELISA, mAb titrated on gp120, absorbance 492 nm; curve 495 (A244 gp120 GNTI-)
[22] = biological target: ZM233 V1/V2 scaffold, wildtype, gD-tagged, produced in GnTI- 293 HEK cells (herpes simplex virus 1; HIV-1 isolate ZM233); test: ELISA; table row ZM233 V1/V2 wt, GnTI-
[23] = biological target: 108060 I169K/E172V/T161M/N156I/S164G/D167G V1/V2 scaffold, gD-tagged, produced in GnTI- 293 HEK cells (herpes simplex virus 1; HIV-1 isolate 108060); test: ELISA; table row 108060 V1/V2.eng1*, GnTI-
[24] = biological target: JRFL-E168K V1/V2 scaffold, wildtype, gD-tagged, produced in GnTI- 293 HEK cells (herpes simplex virus 1; HIV-1 isolate JRFL) (UniProt Q69091); test: ELISA; table row JRFL-E168K V1/V2 wt, GnTI-
[25] = biological target: MN V1/V2 scaffold, wildtype, gD-tagged, produced in normal 293 HEK cells (herpes simplex virus 1; HIV-1 isolate MN) (UniProt Q69091); test: ELISA; table row MN V1/V2 wt, column 293
[26] = biological target: CAP.45 V1/V2 wt (GnTI-); test: ELISA; table row CAP.45 V1/V2 wt, GnTI-
[27] = biological target: CAP.45 V1/V2 wt (293); test: ELISA; table row CAP.45 V1/V2 wt, column 293
[28] = biological target: MN V1/V2 scaffold, engineered, gD-tagged, produced in GnTI- 293 HEK cells (herpes simplex virus 1; HIV-1 isolate MN); test: ELISA; table row MN V1/V2.eng1*, GnTI-

## PG9 monoclonal antibody
[1]
  EC50: 0.002 µg/mL
[2]
  EC50: 0.0143 µg/mL
[3]
  EC50: 0.0303 µg/mL
[4]
  EC50: 2.74 µg/mL
[5]
  EC50: 0.0802 µg/mL
[6]
  EC50: > 10 µg/mL
[7]
  EC50: 0.517 µg/mL
[8]
  EC50: 0.853 µg/mL
[9]
  EC50: 0.599 µg/mL
[10]
  EC50: 0.02 µg/mL
[11]
  EC50: 0.0771 µg/mL
[12]
  EC50: 0.0085 µg/mL
[13]
  EC50 (read off the curve): 0.03 µg/mL
[14]
  EC50 (read off the curve): 0.1 µg/mL
[15]
  EC50: 0.000741 µg/mL
[16]
  EC50: 0.00074 µg/mL
[17]
  EC50: 0.0095 µg/mL
[18]
  EC50 (read off the curve): 0.1 µg/mL
[19]
  EC50 (read off the curve): 0.03 µg/mL
[20]
  EC50: 0.113 µg/mL
[21]
  EC50: 0.02 µg/mL
[22]
  EC50: 0.00951 µg/mL
[23]
  EC50: 0.00685 µg/mL
[24]
  EC50: > 10 µg/mL
[25]
  EC50: > 10 µg/mL
[26]
  EC50: 0.0527 µg/mL
[27]
  EC50: 0.312 µg/mL
[28]
  EC50: 0.00796 µg/mL
